First the molecules themselves.
B1: YLDSMYIML (SEQ ID NO: 31) (peptide)
peptide: YLDSMYIML
B2: LINPNIATV (SEQ ID NO: 25) (peptide)
peptide: LINPNIATV
B3: LLLPPPPCPA (SEQ ID NO: 156) (peptide)
peptide: LLLPPPPCPA
B4: MLLEIPYMAA (SEQ ID NO: 157) (peptide)
peptide: MLLEIPYMAA
B5: ILYSDDGQKWTV (SEQ ID NO: 45) (peptide)
peptide: ILYSDDGQKWTV
B6: LLLDPDTAVLKL (SEQ ID NO: 155) (peptide)
peptide: LLLDPDTAVLKL
B7: YVDDGLISL (SEQ ID NO: 32) (peptide)
peptide: YVDDGLISL
B8: SLYTALTEA (SEQ ID NO: 26) (peptide)
peptide: SLYTALTEA
B9: SLLDLHTKV (SEQ ID NO: 159) (peptide)
peptide: SLLDLHTKV
B10: VLDEFYSSL (SEQ ID NO: 28) (peptide)
peptide: VLDEFYSSL
B11: FLTPSIFII (SEQ ID NO: 39) (peptide)
peptide: FLTPSIFII
B12: FLNPDEVHAI (SEQ ID NO: 37) (peptide)
peptide: FLNPDEVHAI
B13: ALLEPEFILKA (SEQ ID NO: 152) (peptide)
peptide: ALLEPEFILKA
B14: GLLAGNEKLTM (SEQ ID NO: 41) (peptide)
peptide: GLLAGNEKLTM
B15: KVADLVLML (SEQ ID NO: 154) (peptide)
peptide: KVADLVLML
B16: SLIEKYFSV (SEQ ID NO: 158) (peptide)
peptide: SLIEKYFSV
B17: ALWHDAENQTVV (SEQ ID NO: 19) (peptide)
peptide: ALWHDAENQTVV
B18: YLPDIIKDQKA (SEQ ID NO: 161) (peptide)
peptide: YLPDIIKDQKA
B19: ALFVRLLAL (SEQ ID NO: 18) (peptide)
peptide: ALFVRLLAL
B20: FLEDDDIAAV (SEQ ID NO: 34) (peptide)
peptide: FLEDDDIAAV
B21: GLVDGRDLVIV (SEQ ID NO: 21) (peptide)
peptide: GLVDGRDLVIV
B22: FLFPSQYVDV (SEQ ID NO: 35) (peptide)
peptide: FLFPSQYVDV
B23: LIYKDLVSV (SEQ ID NO: 47) (peptide)
peptide: LIYKDLVSV
B24: FILANEHNV (SEQ ID NO: 15) (peptide)
peptide: FILANEHNV
B25: FLTEAALGDA (SEQ ID NO: 38) (peptide)
peptide: FLTEAALGDA
B26: ILAQVGFSV (SEQ ID NO: 44) (peptide)
peptide: ILAQVGFSV
B27: ALPKEDPTAV (SEQ ID NO: 153) (peptide)
peptide: ALPKEDPTAV
B28: YILPFSEVL (SEQ ID NO: 29) (peptide)
peptide: YILPFSEVL
B29: GLIDYDTGI (SEQ ID NO: 16) (peptide)
peptide: GLIDYDTGI
B30: FGYDGDFYRA (SEQ ID NO: 2) (peptide)
peptide: FGYDGDFYRA
B31: ALLDIIRSL (SEQ ID NO: 151) (peptide)
peptide: ALLDIIRSL
B32: FLGDLSHLL (SEQ ID NO: 36) (peptide)
peptide: FLGDLSHLL
B33: YIYKDTIQV (SEQ ID NO: 30) (peptide)
peptide: YIYKDTIQV
B34: ILSTEIFGV (SEQ ID NO: 22) (peptide)
peptide: ILSTEIFGV
B35: LLDGFPRTV (SEQ ID NO: 49) (peptide)
peptide: LLDGFPRTV
B36: TMVEHNYYV (SEQ ID NO: 46) (peptide)
peptide: TMVEHNYYV
B37: ILSDMRSQYEV (SEQ ID NO: 42) (peptide)
peptide: ILSDMRSQYEV
B38: GLIDIENPNRV (SEQ ID NO: 20) (peptide)
peptide: GLIDIENPNRV
B39: GLAPQIHDL (SEQ ID NO: 40) (peptide)
peptide: GLAPQIHDL
B40: HLGVKVFSV (SEQ ID NO: 43) (peptide)
peptide: HLGVKVFSV
B41: LLFGSDGYYV (SEQ ID NO: 50) (peptide)
peptide: LLFGSDGYYV
B42: LLDENGVLKL (SEQ ID NO: 48) (peptide)
peptide: LLDENGVLKL
B43: KLSENAGIQSL (SEQ ID NO: 24) (peptide)
peptide: KLSENAGIQSL
B44: ALDPAAQAFLL (SEQ ID NO: 4) (peptide)
peptide: ALDPAAQAFLL
B45: GLIDYDTGIRL (SEQ ID NO: 17) (peptide)
peptide: GLIDYDTGIRL
B46: TLLAHPVTL (SEQ ID NO: 27) (peptide)
peptide: TLLAHPVTL
B47: KLDSSGGAVQL (SEQ ID NO: 23) (peptide)
peptide: KLDSSGGAVQL
B48: ILIGETIKI (SEQ ID NO: 3) (peptide)
peptide: ILIGETIKI
B49: VLLPDERTISL (SEQ ID NO: 160) (peptide)
peptide: VLLPDERTISL

In patent publication US20160368965A1 (IMMATICS BIOTECHNOLOGIES, published 2016) one finds peptide exchange yield data, which are given here for 49 molecules.

For the assay, the target named is T1, HLA-A*02:01 (human).
T1 construct: the tested peptide takes its place; also called peptide-receptive MHC molecules; MHC class I
Put plainly: UV-ligand exchange, anti-β2m ELISA; grade of peptide exchange yield. An excerpt:
Candidate peptides for T cell based therapies according to the present invention were further tested for their MHC binding capacity (affinity). The individual peptide-MHC complexes were produced by UV-ligand exchange, where a UV-sensitive peptide is cleaved upon UV-irradiation, and exchanged with the peptide of interest as analyzed. Only peptide candidates that can effectively bind and stabilize the peptide-receptive MHC molecules prevent dissociation of the MHC complexes. To determine the yield of the exchange reaction, an ELISA was performed based on the detection of the light chain (β2m) of stabilized MHC complexes. The assay was performed as generally described in Rodenko et al. (Rodenko et al., 2006).
96 well MAXISorp plates (NUNC) were coated over night with 2 ug/ml streptavidin in PBS at room temperature, washed 4× and blocked for 1h at 37° C. in 2% BSA containing blocking buffer. Refolded HLA-A*02:01/MLA-001 monomers served as standards, covering the range of 15-500 ng/ml. Peptide-MHC monomers of the UV-exchange reaction were diluted 100 fold in blocking buffer. Samples were incubated for 1 h at 37° C., washed four times, incubated with 2 ug/ml HRP conjugated anti-β2m for 1h at 37° C., washed again and detected with TMB solution that is stopped with […]. Absorption was measured at 450 nm. Candidate peptides that show a high exchange yield (preferably higher than 50%, most preferred higher than 75%) are generally preferred for a generation and production of antibodies or fragments thereof, and/or T cell receptors or fragments thereof, as they show sufficient avidity to the MHC molecules and prevent dissociation of the MHC complexes.
Molecule B1 returned a peptide exchange yield of 50 to 75%.

On to B2, for which the peptide exchange yield lay within 20 to 50%.

Consider B3, for which the peptide exchange yield is 50 to 75%.

The molecule B4 returned a peptide exchange yield of 50 to 75%.

As for B5, the peptide exchange yield is 50 to 75%.

For B6, the peptide exchange yield fell in the range of 50 to 75%.

Molecule B7 displayed a peptide exchange yield of 20 to 50%.

In the case of B8, the peptide exchange yield lay in the range of 50 to 75%.

Turning to B9, the peptide exchange yield was 50 to 75%.

Regarding B10, the peptide exchange yield fell in the range of 50 to 75%.

As to B11, the peptide exchange yield was 20 to 50%.

In the case of B12, the peptide exchange yield was 20 to 50%.

For the molecule B13, the peptide exchange yield was at least 75%.

B14: the peptide exchange yield fell in the range of 20 to 50%.

B15 had a peptide exchange yield of 50 to 75%.

In the case of B16, the peptide exchange yield was at least 75%.

With B17, the peptide exchange yield fell in the range of 50 to 75%.

B18 registered a peptide exchange yield of 50 to 75%.

As for B19, the peptide exchange yield was 20 to 50%.

For the molecule B20, the peptide exchange yield is 20 to 50%.

As for B21, the peptide exchange yield is 50 to 75%.

Molecule B22 came in with a peptide exchange yield of 50 to 75%.

B23 returned a peptide exchange yield of 50 to 75%.

B24 gave a peptide exchange yield of 50 to 75%.

B25 had a peptide exchange yield of 50 to 75%.

For the molecule B26, the peptide exchange yield lay within 50 to 75%.

In turn, B27 came in with a peptide exchange yield of 50 to 75%.

As to B28, the peptide exchange yield was at least 75%.

As to B29, the peptide exchange yield lay in the range of 50 to 75%.

The molecule B30 came in with a peptide exchange yield of 50 to 75%.

Molecule B31 yielded a peptide exchange yield of at least 75%.

With B32, the peptide exchange yield was in the range of 20 to 50%.

Molecule B33 gave a peptide exchange yield of 20 to 50%.

On to B34, for which the peptide exchange yield was 50 to 75%.

B35: the peptide exchange yield was in the range of 20 to 50%.

Take B36: the peptide exchange yield is 50 to 75%.

B37: the peptide exchange yield lay in the range of 50 to 75%.

Turning to B38, the peptide exchange yield fell in the range of 50 to 75%.

On to B39, for which the peptide exchange yield was in the range of 20 to 50%.

With B40, the peptide exchange yield was in the range of 20 to 50%.

As to B41, the peptide exchange yield was 50 to 75%.

B42: the peptide exchange yield was 50 to 75%.

B43 displayed a peptide exchange yield of 20 to 50%.

As for B44, the peptide exchange yield fell in the range of 50 to 75%.

In turn, B45 displayed a peptide exchange yield of 50 to 75%.

Take B46: the peptide exchange yield is 50 to 75%.

On to B47, for which the peptide exchange yield lay within 20 to 50%.

With B48, the peptide exchange yield was in the range of 50 to 75%.

B49 registered a peptide exchange yield of at least 75%.
